Laboratory results reported in patent US20180072772A1 (CALIFORNIA INSTITUTE OF TECHNOLOGY, published 2018).
Primed or numbered codes have the meaning given here. Where no end group is shown, it is not given here. [ ]: non-standard residue; d: D form. The star is where a group is joined. Biotin = O=C1N[C@H]2[C@H](CS[C@H]2CCCCC(=O)*)N1; Lys(N3) = [N-]=[N+]=NCCCC[C@H](N)C(=O)O; dPra = C#CC[C@@H](N)C(=O)O; PEG5″ = not defined here; PEG5′ = PEG5 linker

Key:
[1] = biological target: E17K GST-PH Domain (Homo sapiens (Human)) (UniProt P31749); assay: ELISA, biotinylated ligand on streptavidin plate, GST-PH Domain titrated, anti-GST detection
[2] = biological target: full length Akt1E17K (Homo sapiens (Human)) (UniProt P31749); assay: fluorescence polarization in solution, full-length Akt1 titrated
[3] = biological target: T1, GFP-tagged E17K PH Domain protein (Homo sapiens (Human), UniProt P31749 1-124); assay: confocal imaging of HEK-293T cells expressing GFP-PH Domain
T1 construct: Cloned from pUNO-hAKT1 and mutated; also called GFP-E17K PHD; E17K mutant GFP-PH domain; not shown: GFP of the TOPO C-terminal GFP mammalian vector
T1 chain: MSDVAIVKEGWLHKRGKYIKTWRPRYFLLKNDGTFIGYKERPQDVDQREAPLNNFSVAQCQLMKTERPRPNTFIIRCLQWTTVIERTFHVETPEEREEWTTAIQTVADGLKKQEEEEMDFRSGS

[4] = biological target: full length Akt1E17K (Homo sapiens (Human)) (UniProt P31749); assay: fluorescence polarization, in solution
[5] = biological target: 6His-PEG5-WT 33mer Fragment (wildtype 33-mer epitope without alkyne click handle); assay: fluorescence polarization, in solution
[6] = biological target: 6His-PEG5-Mut 33mer Fragment (E17K 33-mer epitope without alkyne click handle); assay: fluorescence polarization, in solution
[7] = biological target: full length Akt1E17K (Homo sapiens (Human)) (UniProt P31749); assay: fluorescence polarization KD values compared
[8] = biological target: E17K GST-PH Domain (Homo sapiens (Human)) (UniProt P31749); assay: ELISA: biotinylated triligand candidate on streptavidin plate, GST-PH Domain titrated, anti-GST-HRP detection

Sequence of 6His-PEG5-WT 33mer Fragment (wildtype 33-mer epitope without alkyne click handle) (peptide, as listed by the source): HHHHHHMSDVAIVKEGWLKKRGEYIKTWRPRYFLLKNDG
Sequence of 6His-PEG5-Mut 33mer Fragment (E17K 33-mer epitope without alkyne click handle) (peptide, as listed by the source E17K E17K): as the sequence (peptide, as listed by the source) above, with E23K counted along it

B1: yleaf(SEQ ID NO: 43)-Tz-yksy(SEQ ID NO: 76) biligand, N-terminal PEG5-biotin (peptide)
peptide 1: [dY][dL][dE][dA][dF]
peptide 2: [dY][dK][dS][dY]
modifications: not fully specified (N-terminus, C-terminus, bridges); also: triazole to a chain's N/C-terminus
EC50 [1]: 19 nM

B2: triligand 9 (ivdae-yleaf-yksy, form used in fluorescence polarization) (peptide)
peptide 1: [dI][dV][dD][dA][dE]
peptide 2: [dY][dL][dE][dA][dF]
peptide 3: [dY][dK][dS][dY]
modifications: not fully specified (N-terminus, C-terminus); also: fluorescence polarization label, not described, triazole to a chain's N/C-terminus, triazole to a chain's N/C-terminus
EC50 (read off the curve) [2]: 100 nM

B3: Biotin-PEG5-ivdae(SEQ ID NO: 78)-yleaf(SEQ ID NO: 43)-yksy(SEQ ID NO: 76) triligand (peptide)
peptide 1: [dI][dV][dD][dA][dE]
peptide 2: [Lys(N3)][dY][dL][dE][dA][dF][dPra]
peptide 3: [dY][dK][dS][dY]
modifications: not fully specified (N-terminus, C-terminus); also: triazole to a chain's N/C-terminus, triazole to a chain's N/C-terminus
EC50 [1]: 45 nM

B4: PEG5-TAT-Cy5 (peptide)
peptide: [PEG5″]YGRKKRRQRR-Cy5
notes: Control without the yleaf anchor; also called blank of PEG5-TAT-Cy5; control with no anchor ligand peptide
binding result [3]: no binding (tested: 50 nM)

[dY][dL][dE][dA][dF] (also: fluorescence polarization label not described) [yleaf (SEQ ID NO: 43) anchor ligand 4]
Kd [4]: 54 nM | Kd [5]: 2800 nM | Kd [6]: 328 nM | selectivity for E17K relative to WT (fold (E17K:WT)) [7]: 10

{Biotin-PEG5′}-[dY][dL][dE][dA][dF] (not fully specified (C-terminus)) [Biotin-PEG5-yleaf(SEQ ID NO: 43)-Pra anchor ligand]
EC50 [1]: 61 nM

B5: triligand candidate iryrn (iryrn-yleaf-yksy) (peptide)
peptide 1: [dI][dR][dY][dR][dN]
peptide 2: [Lys(N3)][dY][dL][dE][dA][dF][dPra]
peptide 3: [dY][dK][dS][dY]
modifications: not fully specified (N-terminus, C-terminus); also: triazole to a chain's N/C-terminus, triazole to a chain's N/C-terminus
EC50 (read off the curve) [8]: 10 nM
